Data taken from US20230136228A1 (LAMKAP BIO ALPHA, published 2023).
Positions count from the first letter of the chain named.

Experiments:
Assay in all cases: flow cytometry, transfected PEAK cells, 10 mcg/ml
[1] = target: T1, human CEACAM8 (human, UniProt P31997 35-320)
T1 construct: whole, on cells
T1 sequence (looked up): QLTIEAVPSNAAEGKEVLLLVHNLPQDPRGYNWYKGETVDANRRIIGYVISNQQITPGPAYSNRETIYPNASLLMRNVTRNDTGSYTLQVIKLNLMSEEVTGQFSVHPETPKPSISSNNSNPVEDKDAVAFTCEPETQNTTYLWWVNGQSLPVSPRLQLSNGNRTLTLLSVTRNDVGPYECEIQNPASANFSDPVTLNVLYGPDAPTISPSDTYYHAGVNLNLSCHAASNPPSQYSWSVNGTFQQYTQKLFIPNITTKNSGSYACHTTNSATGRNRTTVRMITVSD
Source text: (§1) Vectors encoding the full-length version of human CEACAM 1, 3, 4, 5, 6, 7, 8, 18, 19, 20 and […] are used to express these proteins at the surface of PEAK and/or CHO cells as described in Example 1. Similarly, vectors encoding the full-length version of cyno CEACAM 5 and 6 are also used to express these proteins at the surface of PEAK and/or CHO cells. Non-transfected PEAK and/or CHO cells are used as negative control. Cells are harvested, counted, checked for viability and resuspended at 3×10⁶ cells/ml in FACS buffer (PBS 2% BSA, 0.1% NaN₃). 100 μl of the cell suspension are distributed in V-bottom 96-well plates (3×10⁵ cells/well). The supernatant is removed by centrifugation 3 minutes at 4° C., 1300 rpm and the cells incubated for 15 minutes at 4° C. with increasing concentrations of the antibody according to the invention. The antibodies carrying the anti-CEACAM5 arms to test are diluted in FACS buffer and the concentration range is 30 pM-500 nM. Cells are washed twice with cold FACS buffer and re-incubated for further 15 minutes at 4° C. with a compatible anti-human IgG secondary antibody. Cells are washed twice with cold FACS buffer and resuspended in 300 μl FACS buffer with 1:1500-diluted TOPRO-3 (Invitrogen). Fluorescence is measured using a FACSCalibur™ (BD Biosciences) or a Cytoflex Platform (Beckman Coulter). Dose-response binding curves are fitted using GraphPad Prism8 software. In the same manner, CEACAM1, CEACAM6 and other CEACAMs can be characterized.
(§2) For the bispecific antibodies AB17L3-1/N, AB71L3-1/N, AB72L3-1/N, AB73L3-1/N the MFI measured for binding to CEACAM5 transfected cells was found between 29000 and 41000 (Table 2). In contrast MFI found by using PEAK cells transfected with CEACAM 1,3,4,6,8 were found below 1000 with the only exception of a strong signal for AB72L3-1/N on CEACAM8 transfected cells. When MFI values obtained on transfected cells expressing any given CEACAM are divided by the values obtained on WT PEAK cells, “factors to PEAK WT” can be calculated (Table 3).

[2] = target: T2, human CEACAM6 (human, UniProt P40199 35-320)
T2 construct: whole, on cells; also called CD66c
T2 sequence (looked up): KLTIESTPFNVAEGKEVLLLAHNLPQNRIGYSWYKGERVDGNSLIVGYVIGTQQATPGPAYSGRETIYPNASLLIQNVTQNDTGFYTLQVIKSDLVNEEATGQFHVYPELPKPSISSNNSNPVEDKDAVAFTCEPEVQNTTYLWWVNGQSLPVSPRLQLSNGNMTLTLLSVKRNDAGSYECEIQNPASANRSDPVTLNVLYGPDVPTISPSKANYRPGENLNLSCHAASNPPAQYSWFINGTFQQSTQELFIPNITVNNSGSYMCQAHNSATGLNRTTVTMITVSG
Source text: as §1, §2

[3] = target: T3, human CEACAM1 (human, UniProt P13688 35-526)
T3 construct: whole, on cells
T3 sequence (looked up): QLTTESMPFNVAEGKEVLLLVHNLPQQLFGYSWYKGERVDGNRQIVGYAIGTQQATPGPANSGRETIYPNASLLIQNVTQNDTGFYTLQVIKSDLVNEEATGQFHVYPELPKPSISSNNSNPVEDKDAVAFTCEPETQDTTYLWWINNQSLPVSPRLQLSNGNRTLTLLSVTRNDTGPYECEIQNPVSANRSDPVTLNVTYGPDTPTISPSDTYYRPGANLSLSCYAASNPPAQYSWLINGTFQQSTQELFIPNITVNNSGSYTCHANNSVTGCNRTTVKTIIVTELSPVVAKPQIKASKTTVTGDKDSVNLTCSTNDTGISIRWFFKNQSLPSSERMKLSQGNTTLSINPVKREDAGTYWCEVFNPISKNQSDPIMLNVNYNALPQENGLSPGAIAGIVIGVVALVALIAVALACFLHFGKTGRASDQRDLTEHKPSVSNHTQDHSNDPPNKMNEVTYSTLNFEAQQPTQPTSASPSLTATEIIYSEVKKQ
Source text: as §1, §2

[4] = target: T4, human CEACAM5 (carcinoembryonic antigen, CEA), cell surface (human, UniProt P06731 35-685)
T4 construct: whole, on cells; also called CD66e
T4 sequence (looked up): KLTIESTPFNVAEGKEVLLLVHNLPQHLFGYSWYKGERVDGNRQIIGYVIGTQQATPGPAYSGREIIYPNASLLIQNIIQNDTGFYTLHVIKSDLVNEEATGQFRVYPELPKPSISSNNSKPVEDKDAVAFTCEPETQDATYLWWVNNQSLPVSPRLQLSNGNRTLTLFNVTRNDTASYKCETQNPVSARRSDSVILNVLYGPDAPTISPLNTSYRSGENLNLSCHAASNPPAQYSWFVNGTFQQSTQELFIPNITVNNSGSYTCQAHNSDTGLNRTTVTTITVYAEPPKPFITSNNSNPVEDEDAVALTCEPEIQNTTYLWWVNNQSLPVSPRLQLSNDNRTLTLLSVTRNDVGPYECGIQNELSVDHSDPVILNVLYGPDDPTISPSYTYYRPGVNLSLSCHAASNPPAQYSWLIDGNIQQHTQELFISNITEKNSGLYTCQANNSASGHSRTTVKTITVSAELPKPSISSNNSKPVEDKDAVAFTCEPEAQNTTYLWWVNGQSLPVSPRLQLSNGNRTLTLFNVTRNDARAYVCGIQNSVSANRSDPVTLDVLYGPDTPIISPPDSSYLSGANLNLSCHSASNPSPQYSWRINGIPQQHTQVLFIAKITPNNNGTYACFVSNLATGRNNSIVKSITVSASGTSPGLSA
Source text: as §1, §2

B1: AB72L3-1/N (bispecific antibody, human IgG1, kappa, lambda, L234A L235A)
heavy: EVQLVESGGGLVQPGGSLKLSCAASGFTFNTYAMNWVRQAPGKGLEWVGRIRSKYNNYATYYADSVKDRFTISRDDSKNTAYLQMNSLKTEDTAVYYCVRHGNFGNSYVSWFAYWGQGTLVTVSSASTKGPSVFPLAPSSKSTSGGTAALGCLVKDYFPEPVTVSWNSGALTSGVHTFPAVLQSSGLYSLSSVVTVPSSSLGTQTYICNVNHKPSNTKVDKRVEPKSCDKTHTCPPCPAPEAAGGPSVFLFPPKPKDTLMISRTPEVTCVVVDVSHEDPEVKFNWYVDGVEVHNAKTKPREEQYNSTYRVVSVLTVLHQDWLNGKEYKCKVSNKALAAPIEKTISKAKGQPREPQVYTLPPSREEMTKNQVSLTCLVKGFYPSDIAVEWESNGQPENNYKTTPPVLDSDGSFFLYSKLTVDKSRWQQGNVFSCSVMHEALHNHYTQKSLSLSPG
light 1: EIVLTQSPATLSLSPGERATLSCRASQSVNSNLNWYQQKPGQAPRLLIYHSTNRPRGIPARFSGSGSGTDFTLTISSLEPEDFAVYYCQQFDYFKEYNTFGQGTKVEIKRTVAAPSVFIFPPSDEQLKSGTASVVCLLNNFYPREAKVQWKVDNALQSGNSQESVTEQDSKDSTYSLSSTLTLSKADYEKHKVYACEVTHQGLSSPVTKSFNRGEC
light 2: QTVVTQEPSLTVSPGGTVTLTCRSSTGAVTTSNYANWFQQKPGQAPRGLIGGTNKRAPGTPARFSGSLLGGKAALTLSGAQPEDEAEYYCALWYKQRWVFGGGTKLTVLGQPKAAPSVTLFPPSSEELQANKATLVCLISDFYPGAVTVAWKADSSPVKAGVETTTPSKQSNNKYAASSYLSLTPEQWKSHRSYSCQVTHEGSTVEKTVAPTECS
notes: Kappa-lambda body, lead optimization wave 2
**Q.** With B1 as the binder, how does the MFI [1] read?
**A.** 6290 MFI

**Q.** And the MFI [2]?
**A.** 562 MFI

**Q.** And the MFI [3]?
**A.** 652 MFI

**Q.** And the MFI [4]?
**A.** 41000 MFI

B2: AB73L3-1/N (bispecific antibody, human IgG1, kappa, lambda, L234A L235A)
heavy: B1 heavy
light 1: B1 light 1 with T52N, R56H, K95R
light 2: B1 light 2
notes: as for B1
**Q.** For B2, which MFI [1] is on record?
**A.** 401 MFI

**Q.** What about the MFI [2] of the same binder?
**A.** 490 MFI

**Q.** What about the MFI [3] of the same binder?
**A.** 542 MFI

**Q.** And the MFI [4]?
**A.** 36200 MFI
